Results: the nanobody polyreactivity screen of Harvey et al. (2022)

Assay: yeast display, Sf9 membrane polyspecificity reagent, FACS + sequencing; frameworks hold sequencing errors
Method in brief: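 Genes from sorted yeast were amplified by colony PCR, read by MiSeq 2 × 250 sequencing and filtered on CDR length. These cells carried a synthetic nanobody library in Saccharomyces cerevisiae BJ5465 and were sorted by FACS into low and high (top ~1%) gates on anti-HA and streptavidin fluorescence. Polyreactivity is labelled according to the gate of origin.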

Sequence	polyreactivity (PSR sort gate)
QVQLVESGGGLVQAGGSLRLSCAASGSTYHKDAMAWYRQAPGKERELVAAISNGGRTYYADSVKGRFTISRDNAKNTVYLKRNSLKPEATAVYYCAAVPRRGWDIRRYDSWGQGTQVTVSS	high polyreactivity
QVQLVESGGGLVQAGGSLRLSCAASGSIFENNAMGWYRQAPGKERELVAAISSDDTTNYADSVKGRFTISRDNAKNTVYLQMNSLKPEDTAVYYCATDYYVYGYPYDYGYWGQGTQVTVSS	low polyreactivity
QVQLVESGGGLVQAGGSLRLSCAASGRIFPVYAMVSYRQAPGKERELVAAISKRDGSTSYADSVKGRFTISRDNAKNTVYLQMHSLKPEDTAVYYCNVLGYGSSYDYWGQGTQVTVSS	low polyreactivity
QVQLVESGGGLVQAGGSLRLSCAASGRTFENYVMGWYRQAPGKERELVPAITVSGGSTYYADSVKGRFTISRDIAKNTVYLQMNSLKPEDTAVYYCAADPNVLFSQKYYEPNDYWGQGTQVTVSS	low polyreactivity
QVQLVESGGGLVQAGGRLRLSCAASGSIFHYNAMGWYRQAPGKESELVAAITTSGGSTYYADSVKGRFTISLDNAKNSVYLQMNSLKPEDTAVYYCNVVTRYYTMEYWGQGTQVTVSS	high polyreactivity
QDQLVESGGGLVQAGGSLRLSCSASGRIFTRNTMGWYRQAPGKERELVAAITSRGGSTYYADSVKGRFTISRDNAKNTVYLQMNSLKPEDTAVYDCAADKPRSYYYWGQGTQVTVSS	high polyreactivity
QVQLVESGGGLVQAGGSLRLSCAASGSTRYNAMGWYRQAPGKERELVASIRGNAGSTYYADSVKGRFTISRDNAKNTVYLQMNSLKPEDTAVYYCNARYWYRYGGYKPVGGYYWGQGTQVTVSS	high polyreactivity
QVQLVESGGRLVQAGGSLRLSSAASGSTFVDYDMGWDRQAPGKERELVAAISGSGGRTYYADSVKGRFTISRDTAKNTVYLQLISVKPEDTAVYYCAAVNAGGELAYWGQGTQVTVSS	high polyreactivity
QVQLVESGGGVQAGGSLRLSCAASGRTFVPYAMGWYRQAPGKERELVAAISSIGDSTSYADSVKGRFTISRDNAKNTVYLQMNCLKPEDTAVYYFAAAEDRDRLVPKLDYWGQGTQVTVSS	low polyreactivity
QVQLVESGGGLVQAGGSLRLSCAASGRTLKTYVMGWYRQAPGKERELVAAITSGGRTYYADSVKGRFTISRDNAKNTVYVQMNSLKPEDTAVYYCNAQLYWSRSWYLFDNTSFDYWGQGTQVTVSS	low polyreactivity
QVQLVESGGGLVQAGGSLRLSCADSGSTFVLNAMGWYRQAPGKERELVAAISRCGASTYYADSVKGRFTISRDNAKNTVYLQMNSLKPEDTAVYYCNASGYGPGVVIYLVLYDYWGQGTQVTVSS	low polyreactivity
QVQLVESGGGLVQAGGSLRLSCAASGIIFLNYVMGWYRQAPGKERELVAAITTSGASTYYADSVKGRFTISRDNAKNTVYLQMNSLKPEDTAVYYCAAVFRHARYRYDYWGLGTQVTVSS	high polyreactivity
QVQLVESCGGLVQAGGSLRLSCAASGGTFGPYAMAWYRQAPGKEREFVARITGSGTRTYYADSVKGRFTISRDNAKNTVYLQMNSLKPEDTAVYYCATSHSRGSRGHDYWGQGTQVTVSS	low polyreactivity
QDQLVESVGGLVQAGGSLRLSCAASGLIFYYYDMGWYRQAPGKERELVAAISSRGSSTYYADSVKGRFTISRVNAKNTVYLQMNSLKPEDTAVYYCAADSVSKYFGYDYWGQGTQVTVSS	high polyreactivity
QVQLVESGGGLVQAGGSLRLSCAASGRLFTYYVMGWYRQAPGKERELVAAISYGGGSTYYADSVKGRFTISRDNAKNTVYLQMNSLKPEDTAVYYCAAEDGYRKMDYWGQGTQVTVSS	low polyreactivity
QVQLVESGGGLVQAGGSLRLSCAASGITFSKYAMGWYRPAPGKERELVAAISSTASTNYADSVKGRFTISRDNAKHTVYFQMNSLKPEDTAVYYCNAGLFFQWFWTYDDYWGQGTQVTVSS	low polyreactivity
QLQLVESGGGLVQAGGRLRLSSAASGRTFRYYAMGWYRQAAGKERELVASITSGGRTYYADSVKGRFTISRDNAKNTVYLQMNSLKPEDTAVYYCAADRFGIGGKRGNDYWGQGTQVTVSS	high polyreactivity
QVQLVESGGGLVQAGGSLRLSCAASGSTFARYTMGWYRQAPGKERELVATITNRGGSTYYADSVKGRFTISRDNAKNTVYLQMNSLKPEVTAVYYCNKRYYWGGYDYWGQGTQVTVSS	high polyreactivity
QVQLVESGGGLVQAGGSLRLSCAASGRTFFYNAMGWYRQAPGKERELVAAIDWSGDSTYYADSVKGRFTISRDNAKNTVYLQMNSLKPEDTAVYYCAADGGQVDDSATRLYYWGQGTQVTVSS	high polyreactivity
QVKLVESGGGLVQAGGSLRLSCCASGSTFSPNTMGRYRQAPGKDREVVAAITYRGANTYYADSVKGRFTISRDNAKLTVYLQMNSLKPEDTAVYYCSAVYAYHHVGFGYWGQGTQVTVSS	low polyreactivity
QVQLVESGGGLVQAGGSLRLSCAASGSTFQPYAMGWYRQAPGKEREFVATISGSAGSTYYADSVKGRFKISRDNAKNTVYLLMNSLKPEDTAVYYCNADSGWFGYDYWGQGTQVTVSS	low polyreactivity
QVQLVESGGGLVQAGGSLRLSCAASGFTFRYYAMGWYRQAPGKERELVAAITSRGGNTYYADSVKGRFTISRDNAKNTVYLQMNSLKPEDTAVYYCAARYSTTMDYWGQGTQVTVSS	high polyreactivity

Sequence	polyreactivity (PSR sort gate)
QVQLVESGGGLVQAGGSHRLSCAASGSTRYYMGWYRQAPGKEREFVARITWSGTRTYYADSVKGRFTISRDNAKNTVYLQMNSLKPEDTAVYYCNAGVVWGQGTQVTVSS	high polyreactivity
QVQLVESGGGLVQAGGSLRLSCASSGSTFARNAMGWYRQAPGKERELVAAISWRGGSTYYADSVKGRFTISRDNAKNTVYLQKNSLKPEDTAVYYCAADGAYWRGTGYEYWGQGTQVTVSS	high polyreactivity
QVQLVESGGGLVQAGGSLRLSCAASGITFEYYAMGWYRQAPGKERELVAAIDTVGSTNYADSVKGRFTISRDNAKNTVYLQMNSLKPEDTAVYYCAADWSWWDGEDYHFEYDYWGQGTQVTVSS	low polyreactivity
HVQLVESGGGLVQAGGSLRLSCAASGRTFYFNTMGWYRQAPGKEMELVASISYGSNTNYADSVKGRFTISRDNAKNTVYLQMNSLKPEDTAVYFCAVRWVYRTSSWGARYGRYDYWGQGTQVTVSS	high polyreactivity
QVQLVESGGGLVQAGGSLRLSCAASGRIFPYYAMGWYRQAPGKVRELVASIRYSAGNTYYADSVKGRFTISRDNAKNTVYLQMNSLKPEDTAVYYCWYTQNTLGNYWGQGTQVTVSS	low polyreactivity
QVQLVESGGGLVQAGGSLRLSCAASGSIFNGNAMGWYRQAPGKERELVAAISSGDSTNYADSVKGRFTISRDNAKNTVYLQMNSLKPEDTAVYYCNAVHRSIARGGGMDYWGQGTQVTVSS	low polyreactivity
QVQLVESGGGLVQAGGSLRLSCAASGSTFRPYAMGWYRQAPGKERELLAAISSGDTTDYADSVKGRFTISRDNAKNTVYLQMNSLKPEDNAVYYCATVFNDLTVYEYWSRFDYWGPGTQVTVSS	low polyreactivity
QVQLVESGGGLVQAGGSLRLSCAASGSIFYLYAMGWYRQAPGKERELVAAISSSGGRTYYADSVKGRFTISRDNAKNTVYLQMNSLKPEDTAVYYCAARYWAKYSYGYWGQGTQVTVSS	high polyreactivity
QVQHVESGGGLVQAGGSLRLSCAASGSTFRYYTMGWYRQAPGKERELVADITIGGSTYYADSVKGRFTISRDNAKNTVYLQMNSLKPEDTAVYYCAARSTGGRIFATGVAYDYWGQGTQVTVST	low polyreactivity
QVQLVESGGGLFQAGGSLRLSCAASGIIFSSNAMGWSRQAPGKERELVAAISSSGSRTYYAASVKGRFTISRDNAKNTVYFQMNSLKPEDTAVYYCAARTISSLNHHGYWGQGTQVTVSS	high polyreactivity
QVQLVESGGGLVQAGGSLRLSCAASGSIIAGNVMGWYRQAPGKERELVAAISRRGGRTYYADSVKGRFTISRDNAKNTVYLQMNSLKPEDTAVYYCAARRDPVLGKSDFWGQGTQVTVSS	high polyreactivity
QVQLVESGGGLVQAGGSLRLSCAASGITFYGYAMGWYRPAPGKERELVAVITSTARTNYADSVNGRFTISRDNAKNTVYLQMNSLKPEDTAVYYCAAVHSSYSFNYWGQGTQVTVSS	high polyreactivity
QVQLLESGGGLVQAGGSLRLSCAASGSILYPYAMGWYRQAPGTERELVAVITKSGGGTYYADSVKGRFTISRDNAKNTVYLQMNSLKPEDTAVYYCNRVWLRGAPHMEYWGQGTQVTVSS	high polyreactivity
QVQLVESGGGLVQAGGSLRLSCAASGNIFLYYTMGWYRQAPGKERELVAGITSGGSTYYADSVKGRFTISRDNAKNTVSLQMNSLKPEDTAVYYCAATYYPNFYRYYYWGQGTQVTVSS	low polyreactivity
QVQLVESGGGLVQAGGSLRLSCAASGSILGHYAMGWYRQAPGKERELVAAISSSGGSTYYADSVKGRFTISRDNAKNTVYLQMNSLKPEDTAVYYCAADRGRPFPRGTGYYYWGQGTQVTVSS	high polyreactivity
QVHLVESGGGLVQAGGSLRLSCAASGRIFAWYAMGWYRQAPGKERELVAAITWGGGRTYYADSVKGRFTISRDNAKNTVYLQMNSLKPEDSAFYYCNRDFDDEMWGQGTQVTVSS	low polyreactivity
QVQLVESGGGLVQAGGSLRLSCAASGSTFVPNTMGWYRQAPGKERELVADITYSGGSTYYADSVKGRFTISRDNAKNTVYLQMNSLKPEDTAVYYCAAEGTTWYYDMDYWGQGTQVTVSS	low polyreactivity
QVQLQESGGGLVQAGGSMRLSCAPRGSIYELRPMGWNRQAPGKESELVAGISTGGSTNYADCVIGRFTISRDNAKYSVYLQMNSLKPEDSAVYYCAAASYGEGTYDYWGQGTQVTVRS	high polyreactivity
QVQLVESGGGLVQAGGSLRLSCAASGSIFWYYAMGWYRQAPGKERELVAAISSGGSTNYADSVKGRFTISRDNAKNTVYLQMNSLKPEDTAVYYCAAGYAVSWYSAYDSGYWGQCTQVTVSS	low polyreactivity
QDQLVESGGGLVQAGGSLRLSCAASGITSSMNSMGWYRQAPGKERELVAAISWRGGSTYYADSVKGRFTISRDNAKNTVYLQLNSLKPEDTAVYYCAVRGKFDYWGQGTQVTVSS	high polyreactivity
QVQLVESGGGLVQAGGSLRLSCAASGSTFRKDAMGWYRQAPGKERELVAAISSSGGDTYYADSVKGRFTISRDNAKNTVYLQMNSLKPEDTAVYYCNTKRPYRVYFRYGYWGQGTQVTVSS	high polyreactivity
